Article PMC3624988 (Developmental cell, 2013)

B1: Sav:V5 (V5-tagged Salvador) (natural protein, Drosophila, UniProt Q9VCR6 1-608, looked up)
chain: MNYLTILLCNRKPTMLSRRNKEKSQHKEGVVGKYMKKDTPPDISVINVWSDQRAKKKSLQRCASTSPSCEFHPRSSSTSRNTYSCTDSQPDYYHARRAQSQMPLQQHSHSHPHSLPHPSHPHVRSHPPLPPHQFRASSNQLSQNSSNYVNFEQIERMRRQQSSPLLQTTSSPAPGAGGFQRSYSTTQRQHHPHLGGDSYDADQGLLSASYANMLQLPQRPHSPAHYAVPPQQQQHPQIHQQHASTPFGSTLRFDRAAMSIRERQPRYQPTSSPMQQQQQQQQQQQQQLQHTQLAAHLGGSYSSDSYPIYENPSRVISMRATQSQRSESPIYSNTTASSATLAVVPQHHHQGHLAVPSGSGGGSLSGSGRGGSSGSVRGASTSVQSLYVPPRTPPSAVAGAGGSANGSLQKVPSQQSLTEPEELPLPPGWATQYTLHGRKYYIDHNAHTTHWNHPLEREGLPVGWRRVVSKMHGTYYENQYTGQSQRQHPCLTSYYVYTTSAEPPKAIRPEASLYAPPTHTHNALVPANPYLLEEIPKWLAVYSEADSSKDHLLQFNMFSLPELEGFDSMLVRLFKQELGTIVGFYERYRRALILEKNRRAGQNQNQNQ
B2: Myc:Wts (Myc-tagged Warts) (enzyme, Drosophila, UniProt Q9VA38 1-1105, looked up)
chain: MHPAGEKRGGRPNDKYTAEALESIKQDLTRFEVQNNHRNNQNYTPLRYTATNGRNDALTPDYHHAKQPMEPPPSASPAPDVVIPPPPAIVGQPGAGSISVSGVGVGVVGVANGRVPKMMTALMPNKLIRKPSIERDTASSHYLRCSPALDSGAGSSRSDSPHSHHTHQPSSRTVGNPGGNGGFSPSPSGFSEVAPPAPPPRNPTACSAATPPPPVPPTSQAYVKRRSPALNNRPPAIAPPTQRGNSPVITQNGLKNPQQQLTQQLKSLNLYPGGGSGAVVEPPPPYLIQGGAGGAAPPPPPPSYTASMQSRQSPTQSQQSDYRKSPSSGIYSATSAGSPSPITVSLPPAPLAKPQPRVYQARSQQPIIMQSVKSTQVQKPVLQTAVAPQSPSSASASNSPVHVLAAPPSYPQKSAAVVQQQQQAAAAAHQQQHQHQQSKPPTPTTPPLVGLNSKPNCLEPPSYAKSMQAKAATVVQQQQQQQQQQQQVQQQQVQQQQQQQQQQLQALRVLQAQAQRERDQRERDQRERERDQQKLANGNPGRQMLPPPPYQSNNNNNSEIKPPSCNNNNIQISNSNLATTPPIPPAKYNNNSSNTGANSSGGSNGSTGTTASSSTSCKKIKHASPIPERKKISKEKEEERKEFRIRQYSPQAFKFFMEQHIENVIKSYRQRTYRKNQLEKEMHKVGLPDQTQIEMRKMLNQKESNYIRLKRAKMDKSMFVKLKPIGVGAFGEVTLVSKIDTSNHLYAMKTLRKADVLKRNQVAHVKAERDILAEADNNWVVKLYYSFQDKDNLYFVMDYIPGGDLMSLLIKLGIFEEELARFYIAEVTCAVDSVHKMGFIHRDIKPDNILIDRDGHIKLTDFGLCTGFRWTHNSKYYQENGNHSRQDSMEPWEEYSENGPKPTVLERRRMRDHQRVLAHSLVGTPNYIAPEVLERSGYTQLCDYWSVGVILYEMLVGQPPFLANSPLETQQKVINWEKTLHIPPQAELSREATDLIRRLCASADKRLGKSVDEVKSHDFFKGIDFADMRKQKAPYIPEIKHPTDTSNFDPVDPEKLRSNDSTMSSGDDVDQNDRTFHGFFEFTFRRFFDDKQPPDMTDDQAPVYV

Molecular target: Flag:Jub (full length Ajuba LIM protein Jub, 1-729aa) (Drosophila, UniProt Q9VY77 1-728)
Sequence (Q9VY77 whole entry): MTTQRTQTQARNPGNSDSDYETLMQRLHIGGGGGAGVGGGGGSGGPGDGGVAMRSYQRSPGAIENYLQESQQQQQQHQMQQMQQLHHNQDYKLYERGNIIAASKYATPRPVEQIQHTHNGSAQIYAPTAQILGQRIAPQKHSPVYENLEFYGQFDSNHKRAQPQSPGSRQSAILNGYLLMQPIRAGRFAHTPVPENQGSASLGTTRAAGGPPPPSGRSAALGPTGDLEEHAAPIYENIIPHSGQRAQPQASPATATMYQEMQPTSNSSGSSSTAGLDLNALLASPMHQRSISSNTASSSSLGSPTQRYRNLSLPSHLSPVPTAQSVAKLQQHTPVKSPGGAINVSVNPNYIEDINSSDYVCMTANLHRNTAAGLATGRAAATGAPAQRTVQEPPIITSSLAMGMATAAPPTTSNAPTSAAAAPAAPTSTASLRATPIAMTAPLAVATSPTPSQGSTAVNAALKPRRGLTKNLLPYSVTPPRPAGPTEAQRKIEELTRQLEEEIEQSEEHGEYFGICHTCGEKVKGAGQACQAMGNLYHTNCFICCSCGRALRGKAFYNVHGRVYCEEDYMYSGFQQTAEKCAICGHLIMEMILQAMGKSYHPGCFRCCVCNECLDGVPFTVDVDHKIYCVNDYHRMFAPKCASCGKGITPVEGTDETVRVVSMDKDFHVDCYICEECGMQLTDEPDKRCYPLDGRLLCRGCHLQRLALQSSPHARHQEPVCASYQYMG
Assay: co-IP

Binder | fold change of binding with Ras-MAPK activation against without [fold]
B1 | 3
B2 | 2
